Assay results taken from the supplement of paper PMC9112550, “Optimization of the antimicrobial peptide Bac7 by deep mutational scanning” (BMC Biology, 2022).

Tested on: Escherichia coli TOP10
Experiment: shrunken log2 fold change of peptide-encoding DNA abundance (4.5 h post-induction vs induction); higher = less antimicrobial activity (less host growth inhibition)
Details: time post-induction: 4.5 h; library: site-saturation at positions 5, 18, 19, 20
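Also: peptides expressed intracellularly from a pBAD plasmid library in pooled LB shake-flask culture, induced with 0.3% L-arabinose, DNA abundance read by NGS, three biological replicates, DESeq2 with apeglm shrinkage.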

In order of rising “shrunken log2 fold change” value:
1. RRIRHRPPRLPRPRPRPYITPRP  -1.23
2. RRIRYRPPRLPRPRPRPSNSPRP  -1.15
3. RRIRARPPRLPRPRPRPYTNPRP  -1.06
4. RRIRIRPPRLPRPRPRPSCLPRP  -0.998
5. RRIRTRPPRLPRPRPRPYFHPRP  -0.909
6. RRIRYRPPRLPRPRPRPVQLPRP  -0.779
7. RRIRWRPPRLPRPRPRPWNNPRP  -0.77
8. RRIRQRPPRLPRPRPRPKNIPRP  -0.652
9. RRIRVRPPRLPRPRPRPSNHPRP  -0.636
10. RRIRARPPRLPRPRPRPWYYPRP  -0.628
11. RRIRNRPPRLPRPRPRPHLMPRP  -0.584
12. RRIRYRPPRLPRPRPRPTCYPRP  -0.582
13. RRIRCRPPRLPRPRPRPYLSPRP  -0.577
14. RRIRKRPPRLPRPRPRPWYIPRP  -0.568
15. RRIRCRPPRLPRPRPRPIWYPRP  -0.564
16. RRIRIRPPRLPRPRPRPNILPRP  -0.557
17. RRIRIRPPRLPRPRPRPFPLPRP  -0.547
18. RRIRCRPPRLPRPRPRPCKIPRP  -0.543
19. RRIRVRPPRLPRPRPRPVSYPRP  -0.51
20. RRIRGRPPRLPRPRPRPWYSPRP  -0.471
21. RRIRDRPPRLPRPRPRPPYMPRP  -0.464
22. RRIRLRPPRLPRPRPRPYFEPRP  -0.453
23. RRIRSRPPRLPRPRPRPHNVPRP  -0.436
24. RRIRSRPPRLPRPRPRPITHPRP  -0.419
25. RRIRIRPPRLPRPRPRPRMDPRP  -0.389
26. RRIRPRPPRLPRPRPRPFPIPRP  -0.371
27. RRIRLRPPRLPRPRPRPLYCPRP  -0.366
28. RRIRARPPRLPRPRPRPYVAPRP  -0.35
29. RRIRCRPPRLPRPRPRPWRIPRP  -0.321
30. RRIRIRPPRLPRPRPRPCRCPRP  -0.319
31. RRIRARPPRLPRPRPRPHHLPRP  -0.313
32. RRIRLRPPRLPRPRPRPEPYPRP  -0.305
33. RRIRIRPPRLPRPRPRPADAPRP  -0.291
34. RRIRCRPPRLPRPRPRPYKFPRP  -0.279
35. RRIRYRPPRLPRPRPRPMWRPRP  -0.27
36. RRIRDRPPRLPRPRPRPQLNPRP  -0.267
37. RRIRIRPPRLPRPRPRPYWWPRP  -0.259
38. RRIRSRPPRLPRPRPRPYHCPRP  -0.255
39. RRIRNRPPRLPRPRPRPKSHPRP  -0.253
40. RRIRERPPRLPRPRPRPFMDPRP  -0.243
41. RRIRTRPPRLPRPRPRPQRLPRP  -0.223
42. RRIRGRPPRLPRPRPRPSYKPRP  -0.197
43. RRIRSRPPRLPRPRPRPMLFPRP  -0.196
44. RRIRHRPPRLPRPRPRPIFCPRP  -0.184
45. RRIRQRPPRLPRPRPRPLCNPRP  -0.178
46. RRIRYRPPRLPRPRPRPQPMPRP  -0.159
47. RRIRYRPPRLPRPRPRPKKVPRP  -0.141
48. RRIRWRPPRLPRPRPRPFCTPRP  -0.137
49. RRIRYRPPRLPRPRPRPSWKPRP  -0.111
50. RRIRQRPPRLPRPRPRPTYCPRP  -0.0981
51. RRIRERPPRLPRPRPRPWFEPRP  -0.0941
52. RRIRERPPRLPRPRPRPCPDPRP  -0.0864
53. RRIRTRPPRLPRPRPRPATEPRP  -0.0814
54. RRIRHRPPRLPRPRPRPAHIPRP  -0.0784
55. RRIRLRPPRLPRPRPRPNQSPRP  -0.0737
56. RRIRWRPPRLPRPRPRPNQHPRP  -0.071
57. RRIRQRPPRLPRPRPRPYSNPRP  -0.0703
58. RRIRWRPPRLPRPRPRPFQPPRP  -0.0697
59. RRIRCRPPRLPRPRPRPWCAPRP  -0.0685
60. RRIRKRPPRLPRPRPRPHFGPRP  -0.067
61. RRIRYRPPRLPRPRPRPIWSPRP  -0.0646
62. RRIRHRPPRLPRPRPRPKLTPRP  -0.0624
63. RRIRKRPPRLPRPRPRPEKQPRP  -0.0582
64. RRIRMRPPRLPRPRPRPLKNPRP  -0.0484
65. RRIRSRPPRLPRPRPRPEKIPRP  -0.0469
66. RRIRSRPPRLPRPRPRPPEEPRP  -0.0451
67. RRIRFRPPRLPRPRPRPTDPPRP  -0.0408
68. RRIRPRPPRLPRPRPRPEDNPRP  -0.0402
69. RRIRQRPPRLPRPRPRPALNPRP  -0.0345
70. RRIRHRPPRLPRPRPRPTTQPRP  -0.0335
71. RRIRYRPPRLPRPRPRPQDEPRP  -0.0312
72. RRIRQRPPRLPRPRPRPFMRPRP  -0.0303
73. RRIRTRPPRLPRPRPRPCIRPRP  -0.0289
74. RRIRQRPPRLPRPRPRPAKSPRP  -0.0281
75. RRIRKRPPRLPRPRPRPQFVPRP  -0.0281
76. RRIRKRPPRLPRPRPRPDTGPRP  -0.0244
77. RRIRHRPPRLPRPRPRPTIGPRP  -0.0227
78. RRIRQRPPRLPRPRPRPEDRPRP  -0.0214
79. RRIRHRPPRLPRPRPRPGNLPRP  -0.0177
80. RRIRPRPPRLPRPRPRPFWHPRP  -0.017
81. RRIRARPPRLPRPRPRPQRNPRP  -0.0146
82. RRIRNRPPRLPRPRPRPYVPPRP  -0.0142
83. RRIRLRPPRLPRPRPRPEEFPRP  -0.0121
84. RRIRNRPPRLPRPRPRPKDGPRP  -0.00992
85. RRIRRRPPRLPRPRPRPINLPRP  -0.00491
86. RRIRGRPPRLPRPRPRPYDVPRP  -0.00115
87. RRIRQRPPRLPRPRPRPKDPPRP  -0.000135
88. RRIRDRPPRLPRPRPRPHRWPRP  0.00819
89. RRIRMRPPRLPRPRPRPIDTPRP  0.0143
90. RRIRERPPRLPRPRPRPGVNPRP  0.0154
91. RRIRERPPRLPRPRPRPPTSPRP  0.0163
92. RRIRIRPPRLPRPRPRPRTEPRP  0.0225
93. RRIRWRPPRLPRPRPRPEYQPRP  0.0269
94. RRIRTRPPRLPRPRPRPPMLPRP  0.0279
95. RRIRPRPPRLPRPRPRPHTQPRP  0.0349
96. RRIRPRPPRLPRPRPRPNCHPRP  0.0382
97. RRIRLRPPRLPRPRPRPCNMPRP  0.0385
98. RRIRNRPPRLPRPRPRPCANPRP  0.0435
99. RRIRVRPPRLPRPRPRPENPPRP  0.0444
100. RRIRARPPRLPRPRPRPIHPPRP  0.0444
101. RRIRLRPPRLPRPRPRPAMVPRP  0.0527
102. RRIRLRPPRLPRPRPRPDSAPRP  0.0605
103. RRIRQRPPRLPRPRPRPWVLPRP  0.0639
104. RRIRTRPPRLPRPRPRPSWPPRP  0.0669
105. RRIRIRPPRLPRPRPRPAEAPRP  0.0803
106. RRIRQRPPRLPRPRPRPVCTPRP  0.0864
107. RRIRRRPPRLPRPRPRPTYFPRP  0.0897
108. RRIRCRPPRLPRPRPRPEKPPRP  0.118
109. RRIRDRPPRLPRPRPRPCMYPRP  0.126
110. RRIRSRPPRLPRPRPRPWVPPRP  0.177
111. RRIRKRPPRLPRPRPRPLCTPRP  0.179
112. RRIRDRPPRLPRPRPRPDCTPRP  0.185
113. RRIRRRPPRLPRPRPRPKPVPRP  0.191
114. RRIRYRPPRLPRPRPRPWPKPRP  0.203
115. RRIRARPPRLPRPRPRPWHWPRP  0.209
116. RRIRMRPPRLPRPRPRPFCFPRP  0.222
117. RRIRRRPPRLPRPRPRPMRYPRP  0.236
118. RRIRSRPPRLPRPRPRPAQNPRP  0.241
119. RRIRFRPPRLPRPRPRPLWGPRP  0.251
120. RRIRERPPRLPRPRPRPVIWPRP  0.254
121. RRIRLRPPRLPRPRPRPESVPRP  0.255
122. RRIRRRPPRLPRPRPRPPKMPRP  0.286
123. RRIRARPPRLPRPRPRPGKQPRP  0.292
124. RRIRRRPPRLPRPRPRPTCEPRP  0.295
125. RRIRPRPPRLPRPRPRPAPDPRP  0.309
126. RRIRVRPPRLPRPRPRPLATPRP  0.309
127. RRIRGRPPRLPRPRPRPHHEPRP  0.325
128. RRIRGRPPRLPRPRPRPWDFPRP  0.328
129. RRIRGRPPRLPRPRPRPPIFPRP  0.35
130. RRIRQRPPRLPRPRPRPLRKPRP  0.356
131. RRIRGRPPRLPRPRPRPILWPRP  0.376
132. RRIRLRPPRLPRPRPRPGWPPRP  0.406
133. RRIRERPPRLPRPRPRPRKAPRP  0.444
134. RRIRGRPPRLPRPRPRPSSTPRP  0.446
135. RRIRRRPPRLPRPRPRPLACPRP  0.491
136. RRIRRRPPRLPRPRPRPFDRPRP  0.542
137. RRIRARPPRLPRPRPRPTHGPRP  0.644
138. RRIRGRPPRLPRPRPRPGRQPRP  0.654
139. RRIRGRPPRLPRPRPRPNLWPRP  0.671
140. RRIRRRPPRLPRPRPRPKYEPRP  0.811
141. RRIRRRPPRLPRPRPRPPHSPRP  0.916
142. RRIRRRPPRLPRPRPRPAPMPRP  0.957
143. RRIRMRPPRLPRPRPRPPWWPRP  1.01
144. RRIRGRPPRLPRPRPRPGCGPRP  1.31
145. RRIRGRPPRLPRPRPRPKSTPRP  1.41
146. RRIRTRPPRLPRPRPRPGWCPRP  1.42
147. RRIRCRPPRLPRPRPRPAHCPRP  1.77
148. RRIRKRPPRLPRPRPRPVCTPRP  2.01
149. RRIRPRPPRLPRPRPRPCTRPRP  2.07
150. RRIRKRPPRLPRPRPRPEFDPRP  2.46
